This is an account of results in US20160136234A1.

What all share (test): cell-based or functional assay
The target in test [1] is ASK1 (h) (human) (UniProt Q99683).
Test [2] deals with CaMKIδ (h) (human) (UniProt Q8IU85).
For test [3], the target named is EphB1 (h) (human) (UniProt P54762).
The target of test [4] is T1, GRK7 (h) (human) (UniProt Q8WTQ7).
T1 sequence (looked up): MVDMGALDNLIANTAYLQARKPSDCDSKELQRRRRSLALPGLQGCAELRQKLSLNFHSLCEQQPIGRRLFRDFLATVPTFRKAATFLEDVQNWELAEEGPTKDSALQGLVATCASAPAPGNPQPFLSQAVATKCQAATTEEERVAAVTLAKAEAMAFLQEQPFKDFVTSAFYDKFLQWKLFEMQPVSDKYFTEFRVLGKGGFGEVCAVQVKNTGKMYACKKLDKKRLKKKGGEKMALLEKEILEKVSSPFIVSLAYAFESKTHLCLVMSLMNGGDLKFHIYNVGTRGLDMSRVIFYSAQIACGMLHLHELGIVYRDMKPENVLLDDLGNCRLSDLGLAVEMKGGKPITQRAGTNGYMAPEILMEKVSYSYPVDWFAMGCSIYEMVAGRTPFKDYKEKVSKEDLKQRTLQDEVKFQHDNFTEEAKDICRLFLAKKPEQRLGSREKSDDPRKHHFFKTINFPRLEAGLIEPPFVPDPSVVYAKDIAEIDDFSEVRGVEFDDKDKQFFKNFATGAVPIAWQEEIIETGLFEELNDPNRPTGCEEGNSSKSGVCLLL

The target in test [5] is GSK3β (h) (human) (UniProt P49841).
Test [6] addresses T2, Haspin (h) (human) (UniProt Q8TF76).
T2 sequence (looked up): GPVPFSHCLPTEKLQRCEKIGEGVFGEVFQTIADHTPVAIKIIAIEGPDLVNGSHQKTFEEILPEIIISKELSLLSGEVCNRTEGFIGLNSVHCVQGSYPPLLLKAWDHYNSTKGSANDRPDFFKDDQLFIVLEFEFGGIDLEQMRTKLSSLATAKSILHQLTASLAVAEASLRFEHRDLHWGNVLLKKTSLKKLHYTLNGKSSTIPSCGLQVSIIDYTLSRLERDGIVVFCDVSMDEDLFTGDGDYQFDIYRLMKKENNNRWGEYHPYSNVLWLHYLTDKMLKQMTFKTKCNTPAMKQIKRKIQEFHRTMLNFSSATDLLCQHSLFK

For test [7], the target named is JNK3 (h) (human) (UniProt P53779).
The target in test [8] is KDR (h) (human) (UniProt P35968).
For test [9], the target named is MEK1 (h) (human) (UniProt Q02750).
For test [10], the target named is Mnk2 (h) (human) (UniProt Q9HBH9).
The target in test [11] is PAK4 (h) (human) (UniProt O96013).
In test [12] the target is T3, Tec (h) activated (human) (UniProt P42680).
T3 sequence (looked up): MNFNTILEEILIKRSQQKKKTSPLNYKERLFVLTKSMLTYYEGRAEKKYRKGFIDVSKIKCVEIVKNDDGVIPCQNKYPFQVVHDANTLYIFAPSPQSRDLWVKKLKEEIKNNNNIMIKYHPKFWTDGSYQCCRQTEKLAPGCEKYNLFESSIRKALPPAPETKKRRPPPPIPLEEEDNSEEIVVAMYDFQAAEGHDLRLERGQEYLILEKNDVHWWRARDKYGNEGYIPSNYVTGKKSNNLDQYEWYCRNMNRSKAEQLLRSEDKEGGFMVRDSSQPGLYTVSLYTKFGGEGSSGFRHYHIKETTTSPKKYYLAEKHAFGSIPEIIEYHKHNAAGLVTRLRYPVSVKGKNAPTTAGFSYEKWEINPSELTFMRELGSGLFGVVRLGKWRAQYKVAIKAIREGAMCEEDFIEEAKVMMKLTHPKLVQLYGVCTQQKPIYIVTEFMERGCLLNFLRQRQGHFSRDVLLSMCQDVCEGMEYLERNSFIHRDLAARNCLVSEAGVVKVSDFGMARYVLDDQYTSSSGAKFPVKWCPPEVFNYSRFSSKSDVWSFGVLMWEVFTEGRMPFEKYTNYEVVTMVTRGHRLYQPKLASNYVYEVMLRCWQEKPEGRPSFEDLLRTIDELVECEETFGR

The target of test [13] is TrkA (h) (human) (UniProt P04629).
Test [14] deals with T4, Txk (h) (human) (UniProt P42681).
T4 sequence (looked up): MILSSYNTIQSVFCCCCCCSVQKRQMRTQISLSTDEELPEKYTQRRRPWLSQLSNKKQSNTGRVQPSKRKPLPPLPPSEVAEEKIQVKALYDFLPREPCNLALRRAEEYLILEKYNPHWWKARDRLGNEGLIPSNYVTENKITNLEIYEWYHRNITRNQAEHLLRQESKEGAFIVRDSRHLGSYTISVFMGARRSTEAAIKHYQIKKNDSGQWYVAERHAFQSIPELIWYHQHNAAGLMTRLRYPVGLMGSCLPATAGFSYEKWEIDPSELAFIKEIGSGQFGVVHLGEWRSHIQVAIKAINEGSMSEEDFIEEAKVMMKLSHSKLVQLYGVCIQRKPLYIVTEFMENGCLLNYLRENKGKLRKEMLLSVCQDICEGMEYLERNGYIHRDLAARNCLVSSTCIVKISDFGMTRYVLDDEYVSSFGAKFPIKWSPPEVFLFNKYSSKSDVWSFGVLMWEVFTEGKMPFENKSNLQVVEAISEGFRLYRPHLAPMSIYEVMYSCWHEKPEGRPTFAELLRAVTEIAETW

Test [15] has as its target p70S6K (h) (human) (UniProt P23443).

Chain of EphB1 (h) (human) (P54762 564-984 limits assumed): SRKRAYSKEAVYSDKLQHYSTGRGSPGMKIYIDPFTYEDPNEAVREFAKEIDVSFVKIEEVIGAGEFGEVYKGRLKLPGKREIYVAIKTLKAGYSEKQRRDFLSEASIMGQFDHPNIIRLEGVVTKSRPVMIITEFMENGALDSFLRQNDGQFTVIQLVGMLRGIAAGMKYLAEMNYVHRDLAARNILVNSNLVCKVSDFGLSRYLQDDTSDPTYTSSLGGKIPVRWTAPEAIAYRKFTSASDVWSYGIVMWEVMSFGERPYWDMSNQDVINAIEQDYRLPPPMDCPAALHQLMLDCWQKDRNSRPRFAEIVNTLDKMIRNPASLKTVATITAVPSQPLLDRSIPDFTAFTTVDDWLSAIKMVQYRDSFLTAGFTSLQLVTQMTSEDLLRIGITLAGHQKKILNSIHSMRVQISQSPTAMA

With MMI-0300 (peptide), the % activity at 100 µM in test [1] was 80%; in [2], 10%; in test [3], 44%; in test [4] it was 122%; in test [5] it was 205%; in test [6] it was 48%. Moreover, the % activity at 100 µM in test [7] turned out to be 89%; in test [8], 101%; in [9], 77%; in test [10], 89%; in test [11], 94%; in test [12], 56%. Besides, the % activity at 100 µM came out at 25% in [13], 48% in test [14] and 35% in [15].
